In article PMC10368727, “Sequestration of histidine kinases by non-cognate response regulators establishes a threshold level of stimulation for bacterial two-component signaling” (Nature Communications, 2023) one finds Kd data, which are given here for two molecules.

In this test the target is T1, phosphorylated, GFP-tagged HK MtrB (cytosolic catalytic domain) (M. tuberculosis, UniProt P9WGK9 234-567).
T1 construct: also called MtrB~P; P~MtrB-GFP
T1 sequence: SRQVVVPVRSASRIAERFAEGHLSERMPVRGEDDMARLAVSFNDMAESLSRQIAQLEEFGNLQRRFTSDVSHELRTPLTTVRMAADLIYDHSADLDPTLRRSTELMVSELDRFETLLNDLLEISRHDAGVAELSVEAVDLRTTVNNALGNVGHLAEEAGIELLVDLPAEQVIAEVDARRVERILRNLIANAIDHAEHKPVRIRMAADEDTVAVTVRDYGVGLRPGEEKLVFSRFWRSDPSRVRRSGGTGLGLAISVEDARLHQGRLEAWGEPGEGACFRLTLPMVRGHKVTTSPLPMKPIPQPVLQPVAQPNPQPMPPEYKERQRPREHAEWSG
In words: MST. Particulars: both partners purified.

B1: MtrA^D56N, phosphor-defective mutant of MtrA (natural protein)
chain: MDTMRQRILVVDDDASLAEMLTIVLRGEGFDTAVIGDGTQALTAVRELRPDLVLLNLMLPGMNGIDVCRVLRADSGVPIVMLTAKTDTVDVVLGLESGADDYIMKPFKPKELVARVRARLRRNDDEPAEMLSIADVEIDVPAHKVTRNGEQISLTPLEFDLLVALARKPRQVFTRDVLLEQVWGYRHPADTRLVNVHVQRLRAKVEKDPENPTVVLTVRGVGYKAGPP
B1 showed a Kd of 371 ± 130 nM.

B2: NarL^D61N, phosphor-defective mutant of NarL (natural protein)
chain: MSNPQPEKVRVVVGDDHPLFREGVVRALSLSGSVNVVGEADDGAAALELIKAHLPDVALLNYRMPGMDGAQVAAAVRSYELPTRVLLISAHDEPAIVYQALQQGAAGFLLKDSTRTEIVKAVLDCAKGRDVVAPSLVGGLAGEIRQRAAPVAPVLSAREREVLNRIACGQSIPAIAAELYVAPSTVKTHVQRLYEKLGVSDRAAAVAEAMRQRLLD
B2 came in with a Kd of 78 ± 13 nM.

Broadly, the Kd is a measure of binding affinity in units of concentration. Low values mean a tighter complex, high ones a looser complex.
